In PMC3095675 (Journal of molecular biology, 2011):

Key:
[1] = target: Cp149.G123A (Hepatitis B virus) (UniProt P03147); test: SEC
[2] = target: Cp149.G123A (Hepatitis B virus) (UniProt P03147); test: AUC
[3] = target: Cp149.G123A.T114A (Hepatitis B virus) (UniProt P03147); test: AUC
[4] = target: Cp149.R127A (Hepatitis B virus) (UniProt P03147); test: AUC
[5] = target: Cp149.R127A.G123A (Hepatitis B virus) (UniProt P03147); test: AUC
[6] = target: Cp149.S141A (Hepatitis B virus) (UniProt P03147); test: AUC
[7] = target: Cp149.T114A (Hepatitis B virus) (UniProt P03147); test: AUC
[8] = target: Cp149.Y132A (Hepatitis B virus) (UniProt P03147); test: AUC
[9] = target: Cp149.Y132A.G123A.R127A (Hepatitis B virus) (UniProt P03147); test: AUC
[10] = target: Cp(−10)149.5A (Hepatitis B virus) (UniProt P03147); test: cross-linking
[11] = target: Cp(−10)149.G123A (Hepatitis B virus) (UniProt P03147); test: AUC
[12] = target: Cp(−10)149d.C(−7)A.C61.C48A.C107A (Hepatitis B virus) (UniProt P03147); test: cross-linking
[13] = target: Cp(−10)149d.C(−7)A.C61.C48A.C107A (Hepatitis B virus) (UniProt P03147); test: AUC
AUC = target: the molecule itself; test: AUC
cross-linking = target: the molecule itself; test: cross-linking

**Q.** With “Cp149.G123A (from UniProt P03147 1-149) (domain or fragment)” as the molecule, how does the stoichiometry N [1] read?
**A.** Its stoichiometry N is 2.

**Q.** And the stoichiometry N [2]?
**A.** Its stoichiometry N is 2.

**Q.** With “Cp149.G123A.T114A (from UniProt P03147 1-149) (domain or fragment)” as the molecule, how does the stoichiometry N [3] read?
**A.** Its stoichiometry N is 2.

**Q.** Which stoichiometry N [4] does the source give for “Cp149.R127A (from UniProt P03147 1-149) (domain or fragment)” here?
**A.** Its stoichiometry N is 2.

**Q.** How did the stoichiometry N [5] turn out when “Cp149.R127A.G123A (from UniProt P03147 1-149) (domain or fragment)” was run?
**A.** The stoichiometry N was 2.

**Q.** How did the stoichiometry N [6] turn out when “Cp149.S141A (from UniProt P03147 1-149) (domain or fragment)” was run?
**A.** The stoichiometry N was 2.

**Q.** With “Cp149.T114A (from UniProt P03147 1-149) (domain or fragment)” as the molecule, how does the stoichiometry N [7] read?
**A.** Its stoichiometry N is 2.

**Q.** How did the stoichiometry N [8] turn out when “Cp149.Y132A (from UniProt P03147 1-149) (domain or fragment)” was run?
**A.** Its stoichiometry N is 2.

**Q.** With “Cp149.Y132A.G123A.R127A (from UniProt P03147 1-149) (domain or fragment)” as the molecule, how does the stoichiometry N [9] read?
**A.** The stoichiometry N was 2.

**Q.** Which stoichiometry N [10] does the source give for “Cp(−10)149.5A (from UniProt P03147 1-149) (natural protein)” here?
**A.** The stoichiometry N was 2.

**Q.** “Cp(−10)149.G123A (from UniProt P03147 1-149) (natural protein)” was tested. Which stoichiometry N [11] did it give?
**A.** Its stoichiometry N is 2.

**Q.** With “Cp(−10)149d.C(−7)A.C61.C48A.C107A (from UniProt P03147 1-149) (natural protein)” as the molecule, how does the stoichiometry N [12] read?
**A.** The stoichiometry N was 2.

**Q.** And the stoichiometry N [13]?
**A.** The stoichiometry N was 2.

B1: Cp143 (domain or fragment)
chain: MDIDPYKEFGATVELLSFLPSDFFPSVRDLLDTAAALYRDALESPEHCSPHHTALRQAILCWGDLMTLATWVGTNLEDPASRDLVVSYVNTNVGLKFRQLLWFHISCLTFGRETVLEYLVSFGVWIRTPPAYRPPNAPILSTL
**Q.** For B1, which “stoichiometry N” value (AUC) is on record?
**A.** The value was 2.

B2: Cp149.4A (domain or fragment)
chain: MDIDPYKEFGATVELLSFLPSDFFPSVRDLLDTAAALYRDALESPEHASPHHTALRQAILCWGDLMTLATWVGTNLEDPASRDLVVSYVNTNVGLKFRQLLWFHISALTFGRETVLEYLVSFAVWIATPPAYRPPNAPILSTLPETTVV
**Q.** With B2 as the molecule, how does the “stoichiometry N” value (cross-linking) read?
**A.** The value was 2.

B3: Cp141 (domain or fragment)
chain: MDIDPYKEFGATVELLSFLPSDFFPSVRDLLDTAAALYRDALESPEHCSPHHTALRQAILCWGDLMTLATWVGTNLEDPASRDLVVSYVNTNVGLKFRQLLWFHISCLTFGRETVLEYLVSFGVWIRTPPAYRPPNAPILS
**Q.** With B3 as the molecule, how does the “stoichiometry N” value (AUC) read?
**A.** The value was 2.
